The target in test [1] is T1, soluble recombinant human uPAR/His6 (R&D Systems, Cat. # 807-UK-100) (human, UniProt Q03405 23-303).
T1 construct: range 1-303; Bought protein; also called soluble uPAR; hu-uPAR
As to the kind of experiment: low resolution Biacore.
Description: A high-density goat anti-human antibody surface over a CM5 Biacore™ chip was prepared using routine amine coupling. […] Each mAb was captured on a separate flow cell using a 30-second contact time at 10 μL/min followed by a 5-minute wash at a 100 μL/min flow rate for stabilization of the mAb baseline. […] All antigen samples were prepared in the running buffer.

Test [2] addresses T1, soluble recombinant human uPAR/His6 …. Description: high resolution Biacore.
Description: All mAbs were diluted into 10 mM sodium acetate, pH 4.0 for immobilization. […] All experiments were run at 23° C. with a flow rate of 100 μL/min. Serially diluted (2-fold) uPAR samples were randomly injected in triplicate for 90 seconds with several buffer injections interspersed for double referencing. A Biacore™ 2000 biosensor instrument was used for all high resolution experiments. Data were fit globally to a 1:1 interaction model with a term for mass transport included.
The target in test [3] is T2, mouse uPAR on the surface of NCTC L929 cells (mouse, UniProt P35456 24-298).
T2 construct: whole, on cells; also called cell surface mouse uPAR
T2 sequence (looked up): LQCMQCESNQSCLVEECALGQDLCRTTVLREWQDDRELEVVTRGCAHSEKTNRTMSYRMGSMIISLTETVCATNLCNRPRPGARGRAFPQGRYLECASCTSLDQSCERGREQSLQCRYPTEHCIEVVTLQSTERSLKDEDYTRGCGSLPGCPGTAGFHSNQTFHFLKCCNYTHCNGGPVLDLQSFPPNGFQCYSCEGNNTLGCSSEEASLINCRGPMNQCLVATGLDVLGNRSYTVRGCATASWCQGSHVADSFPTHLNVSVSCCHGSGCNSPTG
Description: FACS, NCTC L929 mouse cells.
Description: (§1) To make the mouse cross-reactivity results conclusive, direct binding of the mAbs to cell-bound mouse uPAR was measured using FACS analysis. The mouse cell line derived from the connective tissue, NCTC L929, was employed for FACS analysis. The harvested cells were resuspended at 50,000 cells/well using FACS buffer into a V-bottom plate which was put on ice. […] After washing, Cy5-labeled goat anti-human IgG Fc at 5 μg/ml and 7AAD at 5 μg/ml was added. The mixtures were incubated for 15 min on ice, washed and resuspended in cold FACS buffer for FACS analysis.

In test [4] the target is T3, human urokinase-type plasminogen activator receptor (uPAR, CD87), cell-bound (human, UniProt Q03405 23-305).
T3 construct: whole, on cells; On B300.19 or L929 transfectants (full length cDNA), or native on U937 and PC-3 cells
As to the kind of experiment: FACS, B300.19 cells expressing human uPAR, anti-human gamma Cy5.
Target sequence in this assay (Q03405 23-305): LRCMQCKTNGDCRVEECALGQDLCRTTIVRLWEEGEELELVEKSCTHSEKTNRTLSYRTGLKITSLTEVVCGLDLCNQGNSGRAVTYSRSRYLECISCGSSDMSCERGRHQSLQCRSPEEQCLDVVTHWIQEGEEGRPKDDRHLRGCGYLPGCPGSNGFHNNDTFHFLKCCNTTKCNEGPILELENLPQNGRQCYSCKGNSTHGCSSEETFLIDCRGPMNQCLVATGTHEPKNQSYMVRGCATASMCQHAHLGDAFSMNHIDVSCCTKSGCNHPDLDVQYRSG

Test [5] deals with T1, soluble recombinant human uPAR/His6 …. As to the kind of experiment: limited antigen ELISA, uPAR coat 80 ng/mL, sample 1:25.
Target sequence in this assay (Q03405 other isoform, or with tags, fused parts or gaps limits assumed, form in doubt): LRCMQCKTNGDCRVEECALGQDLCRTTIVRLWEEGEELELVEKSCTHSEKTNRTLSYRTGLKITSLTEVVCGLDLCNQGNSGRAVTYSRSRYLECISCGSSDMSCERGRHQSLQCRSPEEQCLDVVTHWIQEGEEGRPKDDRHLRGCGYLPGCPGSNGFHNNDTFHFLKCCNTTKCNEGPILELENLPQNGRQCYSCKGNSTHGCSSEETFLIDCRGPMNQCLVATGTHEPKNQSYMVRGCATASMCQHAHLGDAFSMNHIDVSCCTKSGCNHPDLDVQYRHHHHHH
Description: ELISA plates were coated with a lower amount ofuPAR in comparison with the High Antigen Quantitation assay described below (320, 160, 80, 40 and 20 ng/mL). Samples containing one concentration of antibody (Ab) (1:25 dilution) were incubated overnight to allow Ab binding to approach equilibrium.
The target in test [6] is T3, human urokinase-type plasminogen …. As to the kind of experiment: cell-based or functional assay.
Test [7] shares this target. As to the kind of experiment: cell-based or functional assay. This is another data set of the same source.
The target in test [8] is T4, murine uPAR (form not stated) (mouse, UniProt P35456 24-297, limits assumed).
T4 construct: also called mouse uPAR
T4 sequence (looked up): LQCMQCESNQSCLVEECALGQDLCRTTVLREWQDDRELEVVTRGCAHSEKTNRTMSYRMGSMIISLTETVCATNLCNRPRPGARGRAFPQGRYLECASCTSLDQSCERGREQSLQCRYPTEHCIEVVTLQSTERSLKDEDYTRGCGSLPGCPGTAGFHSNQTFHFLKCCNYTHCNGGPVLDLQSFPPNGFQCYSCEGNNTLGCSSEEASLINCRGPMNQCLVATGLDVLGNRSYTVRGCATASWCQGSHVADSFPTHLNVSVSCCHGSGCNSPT
Description: summary column Murine X-reactivity.

The target of test [9] is T5, lane 1: murine DI/DIII-human DII uPAR chimera (His-tagged).
T5 construct: The sheet prints only the lane number; also called Murine D1/Human D2/Murine D3; murine D1/human D2/MuD3
T5 uPAR ECD chimera: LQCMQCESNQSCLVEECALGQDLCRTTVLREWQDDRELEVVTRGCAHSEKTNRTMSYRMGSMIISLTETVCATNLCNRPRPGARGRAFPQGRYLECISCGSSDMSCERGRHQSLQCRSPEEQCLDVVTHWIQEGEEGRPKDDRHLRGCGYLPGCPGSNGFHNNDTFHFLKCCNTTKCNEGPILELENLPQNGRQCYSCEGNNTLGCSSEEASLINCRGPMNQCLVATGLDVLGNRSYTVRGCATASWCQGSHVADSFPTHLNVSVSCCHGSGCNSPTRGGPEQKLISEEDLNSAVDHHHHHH
Description: Western blot of HEK293T culture supernatants with His-tagged uPAR proteins, probed with the antibody.
Description: (§2) Human-murine uPAR chimeras (His-tagged) were expressed in BEK293T cells and uPAR expression was detected using the anti-human uPAR mAbs as indicated.
(§3) Chimeric human-murine uPAR comprising murine D1/humanD2D3; murine D1/human D2/MuD3; and human D1D2/murineD3uPAR each with a C-terminal His tag were expressed as secreted proteins in HEK293T cells.

For test [10], the target named is T6, lane 2: murine DI/DII-human DIII uPAR chimera (His-tagged).
T6 construct: The sheet prints only the lane number; also called Murine D1D2/Human D3
T6 uPAR ECD chimera: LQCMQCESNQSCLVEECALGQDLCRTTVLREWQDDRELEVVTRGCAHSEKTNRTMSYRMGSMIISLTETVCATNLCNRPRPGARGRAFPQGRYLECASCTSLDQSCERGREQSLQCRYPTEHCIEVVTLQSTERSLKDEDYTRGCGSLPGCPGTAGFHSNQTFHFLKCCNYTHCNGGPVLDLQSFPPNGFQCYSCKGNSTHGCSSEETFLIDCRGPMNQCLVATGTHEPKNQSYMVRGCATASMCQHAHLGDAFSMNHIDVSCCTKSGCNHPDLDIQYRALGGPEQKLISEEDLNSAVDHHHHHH
The test is described as above.
Description: as §2, §3

The target in test [11] is T2, mouse uPAR on the surface of NCTC L929 …. Description: FACS, NCTC L929 mouse cells, mAb 6.25 µg/ml.
Description: as §1
Test [12] concerns the target T7, human Ly6e with a myc tag, expressed in HEK293T cells (human, UniProt Q16553 21-101).
T7 construct: whole, on cells; not shown: myc tag fused on the molecule
T7 sequence (looked up): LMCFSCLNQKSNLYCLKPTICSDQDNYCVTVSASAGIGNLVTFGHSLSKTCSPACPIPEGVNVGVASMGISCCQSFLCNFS
Description: FACS, HEK293T cells expressing Ly6e, supernatant 1:2.

Test [13] concerns the target T3, human urokinase-type plasminogen …. Description: FACS competition with FITC-tc-uPA, line material.
Target sequence in this assay (Q03405 23-305): as the sequence (Q03405 23-305) above
Description: Briefly, murine fibroblast L929 cells (ATCC) were transfected to express human uPAR.
Test [14] has the same target. Description: FACS, U937 cells, mAb 5 µg/ml on ice, alexa647 goat anti-human F(ab), not stripped.
Description: A cell suspension containing 100,000 cells was pipetted into each well of a V-bottom plates in duplicate. Two V-bottom plates were prepared, one to be kept at 37° C. during internalization with antibody complex, and the other to be incubated at 4° C. Each of the eight uPAR mAbs was incubated with U937 cells at 5 μg/ml on ice for 15 min. Incubation on ice was necessary to prevent internalization of the primary mAbs. The cells were then washed with cold FACS buffer. Cells were subsequently incubated on ice in 100 μl of 5 μg/ml alexa647-labelled goat anti-humanF(ab) (Invitrogen catalogue number A21249) in cold FACS buffer for 15 min. This allowed the goat FAB bind to the bound uPAR mAbs without permitting any internalization. After a 15 minute incubation on ice, one plate was kept on ice, while the other plate was incubated at 37° C. for 1 hour.
Following the 1 hr incubation with the mAb-FAB complex, the cells were washed twice with cold 5% FACS buffer, and 200 μl of Tris(2-carboxyethyl)phosphine HCl (TCEP) was added to each well as a stripping agent. The plates were both incubated with TCEP on ice for 1 hour, followed by washing and resuspending with FACS buffer. 4 μl of 7-Amino-Actinomycin D (7AAD) was added to each well, followed by 10 min incubation on ice before FACS analysis was conducted.

B1: fully human monoclonal antibody 4.18.1 (ATCC Accession Number PTA-7476) (antibody, V domains shown)
VH: EVQLVESGGGLIQPGGSLRLSCAASGFTVRNNYMNWVRQAPGKGLEWVSVIYTGGSTYYADSVKGRFTISRDNSRNTLYLQMNSLRAEDTAVYYCAREGAVAGFDYWGQGTLVTVSL
VL: EIVMTQFPATLSMSPGERATLSCRASQSVSSSLAWYQQTPGQAPRLLIYGASTRSTGFPARFSGIGSGTEFTLTISSLQSEDFAVYYCQQYGNWPLTFGQGTRLEIK
For B1, the Kd was 1500 pM in test [1] and 446 pM in [2]. In addition, the binding result is given as “no binding (tested: 6.25 µg/ml)” in test [3]; “no binding” in test [8]; “no binding” in [9]; “no binding” in test [10]; “no binding (tested: GeoMean ratio 1.95)” in [12]. Moreover, in test [4], the “gCy5 Geo Mean Pos Cells” value was found to be 251. For the same molecule, the “LA at 80 ng/ml” value in test [5] turned out to be 2.06. The “Plasminogen activation inhibition (IC50, ug/ml)” value in [6] came out at 0.067 µg/mL. The “inhibition of adhesion of U937 cells to vitronectin at 2 µg/ml” value (shortened to “inhibition of adhesion of U937 cells”) in test [7] was roughly 90%. The “inhibition of plasminogen activation on U937 cells” value (from here on “inhibition … on U937 cells”) in [7] is greater than 90%. Moreover, the “X Geo Mean” value in [11] is 8.18. Also, in test [13], the “Human uPAR/uPA binding inhibition (%, line material)” value was found to be 75%. In test [14], the “geo mean cold - TCEP” value was 41.2.

B2: fully human monoclonal antibody 2.6.1 (ATCC Accession Number PTA-7475) (antibody, V domains shown)
VH: EVQLVESGGGLIQPGGSLRLSCAASGFTVITNYMNWVRQAPGKGLEWVSIIYTGGSTSYADSVKGRFTVSRDNSKNTLYLHMNSLRVEDTAVYYCAREIAVAGYYGMDVWGQGTTVTVS
VL: DIQMTQSPSSLSASVGDRVTITCRASQGIRNDLGWYQQKPGKAPKRLIYAASSLQSGVPSRFSGSGSGTEFTLTISSLQPEDFATYYCLQHNSYPLTFGGGTRVEIK
notes: also called mAb 2.6.1
On to B2, for which the figures for the Kd in test [1] and in test [2] were 570 pM and 249 pM, respectively. The binding result is “no binding (tested: 6.25 µg/ml)” in [3]; “no binding” in test [8]; “no binding” in test [9]; “no binding” in test [10]; “no binding (tested: GeoMean ratio 1.95)” in test [12]. Also, the “gCy5 Geo Mean Pos Cells” value in test [4] was found to be 455. Moreover, the “LA at 80 ng/ml” value in test [5] is 3.58. The “Plasminogen activation inhibition (IC50, ug/ml)” value in [6] worked out at 0.073 µg/mL. The “inhibition of adhesion of U937 cells” value in test [7] came out at 90%. Further, in [7], the “inhibition … on U937 cells” value is greater than 90%. Further, in [11], the “X Geo Mean” value was 12.9. Further, in [13], the “Human uPAR/uPA binding inhibition (%, line material)” value came to 80%. In addition, the “geo mean cold - TCEP” value in test [14] was 44.3.

B3: fully human monoclonal antibody 2.19.2 (ATCC Accession Number PTA-7474) (antibody, V domains shown)
VH: QVQLVESGGGVVQPGRSLRLSCAASGFTFSSYGMHWVRQAPGKGLEWVAVIWYDGSNKYYADSVKGRFTISRDNSKNTLYLQMNSLRAEDTAVYYCARDQHIVVVTAILDYWGQGTLVTVSS
VL: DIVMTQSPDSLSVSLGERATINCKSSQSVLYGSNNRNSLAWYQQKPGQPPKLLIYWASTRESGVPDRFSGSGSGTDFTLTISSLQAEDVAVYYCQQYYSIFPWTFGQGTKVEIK
As to B3, the Kd in test [1] was found to be 310 pM; in test [2] it was 175 pM. For the same molecule, the binding result in test [3] was “no binding (tested: 6.25 µg/ml)”; in test [8] it was “no binding”; in test [9] it was “no binding”; in test [10], “no binding”; in test [12], “no binding (tested: GeoMean ratio 1.95)”. Moreover, the “gCy5 Geo Mean Pos Cells” value in test [4] was determined as 445. For the same molecule, the “LA at 80 ng/ml” value in test [5] came to 2.65. Also, the “Plasminogen activation inhibition (IC50, ug/ml)” value in test [6] was 0.053 µg/mL. Moreover, the “inhibition of adhesion of U937 cells” value in test [7] was found to be 90%. Moreover, the “inhibition … on U937 cells” value in [7] was greater than 90%. Further, the “X Geo Mean” value in test [11] was determined as 9.55. In addition, the “Human uPAR/uPA binding inhibition (%, line material)” value in test [13] was 85%. In addition, in test [14], the “geo mean cold - TCEP” value came to 42.7.

The values above are taken from patent US20080152587A1 (Amgen, published 2008).
